Reference: US20040120958A1 (CORNELL RESEARCH FOUNDATION, published 2004)

B1: deimmunized J415 heavy chain version 4 combined with deimmunized J415 light chain version 5 (antibody, V domains shown)
VH: EVKLEESGGGLVQPGGSMKISCVASGFTFSNYWMNWVRQSPEKGLEWVAEIRSQSNNFATHYAESVKGRVIISRDDSKSSVYLQMNSLRAEDTAVYYCTRRWNNFWGQGTTVTVSS
VL: NIVMTQFPKSMSASAGERMTLTCKASENVGTYVSWYQQKPTQSPKMLIYGASNRFTGVPDRFSGSGSGTDFILTISSVQAEDLVDYYCGQSYTFPYTFGGGTKLEMK
notes: also called DIVH4/DIVK5; J415DIVH4/J415DIVK5
B2: J415 chimeric antibody (antibody, V domains shown)
VH: EVKLEESGGGLVQPGGSMKLSCVASGFTFSNYWMNWVRQSPEKGLEWVAEIRSQSNNFATHYAESVKGRVIISRDDSKSSVYLQMNNLRAEDTGIYYCTRRWNNFWGQGTTLTVSS
VL: NIVMTQFPKSMSISVGERVTLTCKASENVGTYVSWYQQKPEQSPKMLIYGASNRFTGVPDRFTGSGSATDFILTISSVQTEDLVDYYCGQSYTFPYTFGGGTKLEMK
notes: Expression vectors carry human IgG1 and kappa; also called the chimeric
B3: deimmunized J415 heavy chain version 1 combined with DIVK5 (antibody, V domains shown)
VH: EVKLEESGGGLVQPGGSMKISCKASGFTFSNYWMNWVRQTPEKGLEWVALIRSQSNNFATHYAESVKGRVIISRDDSKSSVYLQMNSLRAEDTAVYYCTRRWNNFWGQGTTVTVSS
VL: NIVMTQFPKSMSASAGERMTLTCKASENVGTYVSWYQQKPTQSPKMLIYGASNRFTGVPDRFSGSGSGTDFILTISSVQAEDLVDYYCGQSYTFPYTFGGGTKLEMK
notes: also called J415DIVH1/J415DIVK5
B4: deimmunized J415 heavy chain version 2 combined with DIVK5 (antibody, V domains shown)
VH: EVKLEESGGGLVQPGGSMKISCVASGFTFSNYWMNWVRQTPEKGLEWVALIRSQSNNFATHYAESVKGRVIISRDDSKSSVYLQMNSLRAEDTAVYYCTRRWNNFWGQGTTVTVSS
VL: NIVMTQFPKSMSASAGERMTLTCKASENVGTYVSWYQQKPTQSPKMLIYGASNRFTGVPDRFSGSGSGTDFILTISSVQAEDLVDYYCGQSYTFPYTFGGGTKLEMK
notes: also called J415DIVH2/J415DIVK5

Columns and labels:
[1] = target: T1, prostate specific membrane antigen (PSMA) on LNCaP cells (human, UniProt Q04609 1-750); test: ELISA on plates coated with LNCap membrane preparation
T1 construct: whole, on cells; also called LNCap membrane preparation
T1 sequence (Q04609 whole entry): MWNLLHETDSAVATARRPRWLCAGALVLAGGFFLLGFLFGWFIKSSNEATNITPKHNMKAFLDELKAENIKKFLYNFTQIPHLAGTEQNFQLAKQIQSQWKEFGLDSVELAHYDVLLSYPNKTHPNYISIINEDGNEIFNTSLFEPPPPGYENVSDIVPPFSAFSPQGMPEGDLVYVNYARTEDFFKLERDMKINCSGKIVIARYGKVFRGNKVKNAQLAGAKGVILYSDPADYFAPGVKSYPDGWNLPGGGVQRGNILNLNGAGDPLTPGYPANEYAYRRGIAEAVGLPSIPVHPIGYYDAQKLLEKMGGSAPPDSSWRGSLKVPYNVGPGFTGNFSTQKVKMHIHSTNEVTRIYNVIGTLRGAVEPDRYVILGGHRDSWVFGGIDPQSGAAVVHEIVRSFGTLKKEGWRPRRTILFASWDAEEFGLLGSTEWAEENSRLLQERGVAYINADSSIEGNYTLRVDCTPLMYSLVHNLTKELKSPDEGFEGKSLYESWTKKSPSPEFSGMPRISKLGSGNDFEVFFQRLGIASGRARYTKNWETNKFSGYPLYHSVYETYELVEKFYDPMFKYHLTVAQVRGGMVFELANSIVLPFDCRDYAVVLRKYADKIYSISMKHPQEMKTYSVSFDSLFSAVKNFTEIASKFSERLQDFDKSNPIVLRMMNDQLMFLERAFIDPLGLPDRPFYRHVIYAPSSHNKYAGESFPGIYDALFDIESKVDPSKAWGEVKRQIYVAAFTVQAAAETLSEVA

[2] = target: T1, prostate specific membrane antigen …; test: ELISA on plates coated with LNCap membrane preparation; purified antibody; reference J415 chimeric antibody

Row | Binder | binding result [1] | fold less binding than the chimeric antibody [2]
1 | B1 | binds | –
2 | B2 | binds | –
3 | B3 | – | 2 fold
4 | B4 | – | 2 fold
